Patent publication US20170247440A1 (Hoffmann-La Roche, published 2017)

Columns and labels:
human PDGF-BB [1] = target: T1, human PDGF-BB (human, UniProt P01127 82-190); test: SPR, IgG on immobilized human PDGF-BB (Example 17)
T1 construct: Bought recombinant protein (Cell Signaling 8921BF or R&D Systems 220-BB); also called huPDGF-BB; recombinant human PDGF-BB
Description: (§1) The binding analysis was carried out using a surface plasmon resonance spectroscopy-based technology applying a BIAcore B4000 system (GE Healthcare). The antigen human PDGF-BB (Cell Signaling, Cat. No. 8921BF) was immobilized at a concentration of 1 μg/mL in PBS, 0.1% BSA, 0.05 Tween using amine coupling chemistry on a C1 sensor chip (GE Healthcare, Cat. No. BR-1005-35). Anti-PDGF-BB antibody in increasing concentrations was applied in 10 mM HEPES pH 7.2, 150 mM NaCl. Utilizing a read out time of 180 sec. association phase and 600 sec. dissociation phase the apparent kₐ and apparent kd were calculated. The apparent KD (avidity) was calculated using the BIAcore T200 v2.0 fitting software.

human PDGF-BB [2] = target: T1, human PDGF-BB; test: inhibition ELISA: biotinylated huPDGF-BB binding to immobilized Fc-tagged huPDGF-Rβ (Example 15)
Description: The protein-protein interaction inhibition analysis of human PDGF-BB to the human PDGF-BB receptor was carried out using an enzyme-linked immunosorbent assay (ELISA)-based technology. The human Fc-tagged PDGF-BB receptor protein (RnD, Cat. No. 385-PR-100) was immobilized at a concentration of […] in 25 μL in PBS, 0.5% BSA and 0.05% Tween on a 384 well microtiter plate (Thermo Scientific Cat. No. 464718). Every of the following steps was followed by a washing routine of 3 times 90 μL PBS with dispense and aspiration: 1) blocking step saturating unbound surface (1 hour, 2% BSA); 2) 15 μL anti-PDGF-BB antibody in increasing concentrations was incubated with 15 μL biotinylated human PDGF-BB (Cell Signaling, Cat. No. 8921BF) at 75 nM in a volume of 30 μL for 1 hour; 3) detection was achieved using peroxidase-labeled streptavidin (Roche Diagnostics GmbH, Mannheim, Germany, Cat. No. 11089153001). 20-30 min. after adding the substrate 3,3′,5,5′-tetramethylbenzidine (TMB, Piercenet, Cat. No. 34021) the optical density was determined at 370 nm. The IC₅₀ was calculated with a four parameter logistic model using GraphPad Prism 6.0 software.

cynomolgus PDGF-BB = target: T2, cynomolgus PDGF-BB (cynomolgus, UniProt A0A2K5UX81 82-190, Disulfide-linked homodimer of two identical B chains; one copy is given.); test: SPR, apparent KD (avidity), IgG on immobilized cynomolgus PDGF-BB (Example 18)
T2 construct: also called cynPDGF-BB
T2 sequence (A0A2K5UX81 entry or part of it limits assumed): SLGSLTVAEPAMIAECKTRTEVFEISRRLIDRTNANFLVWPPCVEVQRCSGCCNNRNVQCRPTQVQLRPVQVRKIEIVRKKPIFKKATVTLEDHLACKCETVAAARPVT
Description: as §1, with “cynomolgus” for “human”, “PDGF-BB” for “PDGF-BB (Cell Signaling, Cat. No. 8921BF)”, “0.05%” for “0.05”

human PDGF-BB [3] = target: T1, human PDGF-BB; test: SPR kinetic screening, IgG on immobilized human PDGF-BB (Example 27)
Description: Binding of anti-PDGF-BB antibodies to human PDGF-BB was investigated by surface plasmon resonance using a BIACORE T200 instrument (GE Healthcare). Around 20 resonance units (RU) of recombinant human PDGF-BB (5 μg/ml; ordering code 220-BB; R&D Systems) were coupled on a Series S C1 chip (GE Healthcare BR-1005-35) at pH 4.0 by using an amine coupling kit supplied by GE Healthcare. Running buffer for immobilization was HBS-N pH 7.4 (10 mM HEPES, 150 mM NaCl, pH 7.4, GE Healthcare). For the following kinetic characterization, running and dilution buffer was HBS-P pH 7.4 (10 mM HEPES, 150 mM NaCl, 0.05% Surfactant P20, pH 7.4, GE Healthcare). The flow cell was set to 25° C.—and the sample block set to 12° C.—and primed with running buffer twice.

human PDGF-BB [4] = target: T1, human PDGF-BB; test: SPR, apparent KD (avidity), IgG on immobilized human PDGF-BB (Example 17)
Description: as §1

T1 sequence (P01127 82-190 limits assumed): as the sequence (A0A2K5UX81 entry or part of it limits assumed) above, with V7I counted along it

Row | Binder | koff (human PDGF-BB [1]) | kon (human PDGF-BB [1]) | IC50 (human PDGF-BB [2]) | Kd (cynomolgus PDGF-BB) | koff (human PDGF-BB [3]) | t½ (human PDGF-BB [3]) | Kd (human PDGF-BB [4])
1 | antibody 0058 (antibody, V domains shown, Human antibody from a human Ig locus transgenic rabbit; IgG) VH: EVQLVESGGGLVQPGGSLRLSCAASGFTFSSFWMTWVRQAPGKGLEWVASISAGGGITHYPDSVKDRFTVSRDNAKNSLYLQLNSLRAEDTAVYYCAESGGDIYSDFDYWGQGTLVTVSS VL: not shown | 0.00011 s⁻¹ | 1.8e+06 M⁻¹ s⁻¹ | 0.0425 µg/mL | 0.0288 nM | 0.000291 s⁻¹ | 40 min | 0.062 nM
2 | antibody 0064 (antibody, V domains shown, Human antibody from a human Ig locus transgenic rabbit; IgG) VH: EVQLVESGGGLVQPGGSLRLSCAASGFTFSSYWMSWVRQAPGKGLEWVSTISDGGGTTSYADSVKGRFTISRDNSKNTLYLQMNSLRAEDTAVYSCAESGGATDYLFDYWGQGTLVTVSS VL: not shown | 5.5e-05 s⁻¹ | 720000 M⁻¹ s⁻¹ | 0.0343 µg/mL | 0.0596 nM | 0.000135 s⁻¹ | 85 min | 0.0769 nM
3 | antibody 0060 (antibody, V domains shown, Human antibody from a human Ig locus transgenic rabbit; IgG) VH: EVQLLESGGDLVQPGGSLRLSCAASGFTFRSYAMSWVRQAPGKGLEWVSGISAGGGYIYYADSVTGRFTSSRDNYKNTLYLQMNRLRVEDTAVYYCARFYPGYNSDTYYYDGMDVWGQGTTVTVSS VL: not shown | 2.9e-05 s⁻¹ | 370000 M⁻¹ s⁻¹ | 0.0554 µg/mL | < 0.0303 nM | 0.000264 s⁻¹ | 44 min | 0.0782 nM
